Laboratory results published in patent US12077763B2, “RNA-based control of powdery mildew” (Greenlight Biosciences, Inc., priority 2021, dated 2024).

System: E. necator
Test: Leaf disc assay, dry inoculum (settling tower), decrease in disease severity / hyphal growth (Example 2)
Details: decrease in disease severity (hyphal growth) relative to untreated control, value ± SE; for % decrease =/− SE TP1: time point 1 (untreated control hyphal growth ≥50%); for % decrease =/− SE TP2: time point 2

B1: GS1874: dsRNA trigger SEQ ID NO 120; gene target eka-like_protein (nucleic acid)
chain: CTAGAGCAGCCACGTGTAGCATGAAACCCATGACAACGTTTGCATTGTTGTATTGGTTGGCATGGTTTGTACAGTATAGCGACTCCTGATTCGTCGAATAGTCGGAATCCGGGTCATGGAGCTTGTTCTCGGGAAAAATGTGCCAGCCAAGAGCGATGTGGAGCACCAGAACGAGTCTTACCATGTACCCTAACCATCTTAGGCGCAAAGTTAGTGACTTTGATAATTTCGGCTACAAGGTTAGTATCGTCGACTGTCACACTTCCACTAGAAGTTTGACGGGCAACGGGAACAGTTGCAATACGATATGTAATAAGATCAGACGCCGGTTCTAGCTTGGCACCCTGAAAAGATATTCTATCACTGTCATTTAGTAGCTTTTGCCTTATCTCCTTTTCTTTGATAGTAAGTGCGAAGCCAGTGGGGGTTCGAGCGATGAGCGTCACATCAGATGGTACACAATTTAGATTTTTGCACAATATTT
- % decrease =/− SE TP1: 25 ± 4%
- % decrease =/− SE TP2: 14 ± 5%

B2: GS1876: dsRNA trigger SEQ ID NO 210; gene target Uncharacterized transcriptional regulatory protein YKL222C (nucleic acid)
chain: CGCGTTCATAAAATATATCTTCATAATCAGCGTATTTAGGTGAAAGTGTAGTAGCCAATGTCCACATGGCATAGCATAGACAAATTGGAGGACGGGTCTGAATTGGACGTTCCAAAGACATGTAAAACCGGGCTTGATGTATGATGGGCATTGAAGGGTGATAGAGAGTGAAGTAGATATGATATAATTCTTTAATCATATAATCAGGCGGTAATGGTTCTTGAAGACCTAAGCTTAGTAGCTCTTTATTGATATTTGATGTAGTTTCTTTAGGCATCTGGGAGAAGCCTGAAATAGGTGGCGACGTTTCAATGGATGTAAGAAGAGGCCTACCATCAATTGCCAAATTCAAATCTATACCCATATTCCAATTTCTTTCGAGCCGGGGAGCTGCAGCATCGGGACTTATGATATCGCATTTTCCTTCCGAGTTGAGTCGAGTCTCCAATTGAGCTAGCCTAGCTTCAATTTCTTTTTCTTT
- % decrease =/− SE TP1: 20 ± 6%
- % decrease =/− SE TP2: 10 ± 8%

B3: GS1884: dsRNA trigger SEQ ID NO 187; gene target Peptidyl-prolyl cis-trans isomerase ssp-1 (nucleic acid)
chain: TAATACTTCATCTGGAAGCCATCGAGTTTGCTTTTTATTATCTGAATTTTTGAGGCATTAAACTACAATACCTATTAAGGTTCAATTCAACGTTACAGTATGTAGCAGTAAATATCATTTTTGGTATAAGAATAAAAATATTCAAATTTTTACCGAAAAAAATGAAGCAGTAAGTCATATTTCTGGGTCAAGTCTCTGTAAGTCTTGCGCATCAAGCTTGCAATTGAGACTCCAAATGTGACTGGATATGTATATATATATATATATGGTGTTATAGTTGTCAAATCGAATCTATTCTATTCTTTGAATCAGATGTAGACCAGATGCTGTTTCTATGATTTGACTCATTTCTCCAACTTTGAGTTCGAATGCAGCATCTTCGAATTCTTTCTGCATATCACCTCTACCAAAGAAACCAAGGTCACCTTGTTTTTTAGCACTATTGCAATCAGACTC
- % decrease =/− SE TP1: 12 ± 4%

B4: ES45: dsRNA trigger SEQ ID NO 109; gene target Hypotethical effector (nucleic acid)
DNA: CTCACCTTGGCATCTACGAAGCCGACAGGAAGGTGGTGGCTACTATGGCCAACCATCGAATGGTGATGGAAGTGTGTATCCACCTTCATCTGGTACAGGTGGCTTTCTATCGCCAACTGCTACGAGCGGTTATCCGTCTGCAACTGGAACTGGCGGCTATTCATCTCCATCGGGCACCGGTGGCTACCCGTCTGCAACAGTTGAAAAAGACAATATTTCGAAGTTCCCGAGAGCTTTCGTATCCGGCAATGACTGCATCACGTCGAATTTCTACGATCCAAGACGAAAATAGTTTGTTTTTTTGCTGTTGGCGTGGAGTCTAGCTGTTGTGTACCCGAACCCTATTCGGATCATCAAATAGGATTGTAAGTTGGTTCATCATTTTATGAACAGATTCAAATTGTATTACCCCATTCTTAATCAATACCATGCAGGTGTGACTGACAGTC
- % decrease =/− SE TP1: 41 ± 5%
- % decrease =/− SE TP2: 31 ± 7%

B5: GS1888: dsRNA trigger SEQ ID NO 182; gene target Succinate dehydrogenase [ubiquinone] iron-sulfur subunit, mitochondrial (nucleic acid)
chain: TTTTAGGCGTTACAATCTTCAATAAATAACTAACATCGATAACAGGTCGTATACCAGCAGATACTAGTAAAGAAACGAAGATTTACCCCCTTCCTCATACCTATGTAGTTAAGGACATCGTCCCAGATCTCACACAGTTTTACAAACAGTATAAGTCCATCAAGCCATACCTTCAACGTACATCTCCCTCACCCAATGGTAAAGAATATCTACAAAGTAAGGAGGACAGAAAAAAACTCGATGGGTTATATGAGTGCATTTTGTGCGCATGCTGTTCTACTTCATGCCCCTCTTACTGGTGGAACTCTGAAGAATACTTGGGCCCAGCTGTTCTGATGCAAAGCTATAGATGGTTAGCAGATTCTCGAGATGAAAAGACAGCTGAGCGAAAGAGTGCTCTGGATAATAGTATGAGTCTCTATCGATGTCATACCATATTAAATTGTT
- % decrease =/− SE TP1: 19 ± 6%
- % decrease =/− SE TP2: 19 ± 6%

B6: GS1890: dsRNA trigger SEQ ID NO 154; gene target Pre-rRNA-processing protein FHL1 (nucleic acid)
chain: TAAAGGAATTGAAGGAGGAAAATTTGATGATGGATTGATAACAGACGGTACTTGCCCATTTATACGAGGTGGTAGCTGATAATTTGAAAAGTGACCTAATTGATTATGTGAAGATTCCATCGGGGCCCTGTACGTAAAGTGGCCTGCTATCTTTGAGAGACCATTTTGATAAGGAGTTTGTTGCAGACCTAGATAAGATTGAGGAGGCGGAGTAGCTCTCCTTTTTTTCTCTTTTTCAATAGATATACCGTCAACGATTCCCCAAGTCCAGCCTTTTCCATCCTTTTCAACTTTGCGGAAAGCATGGTGTTGTGATAGATTGTGACGAACACTACTTTGCCAGCCTAAGGTTTGAGTTTTAAATCTGAAATATGGGTATTTCCTGTATATAGCTCGGTAGATGT
- % decrease =/− SE TP1: 16 ± 5%
- % decrease =/− SE TP2: 4 ± 5%

B7: GS1891: dsRNA trigger SEQ ID NO 122; gene target eka-like_protein (nucleic acid)
chain: CACCAACTGGGTGTCAGTACTAATACCAACAGTTCCAGCTGTTTTACATAAAGAACAAGGAGTAGTTGAAGTGAGCAACAGCATGCTTGCTGATGAGGTGGAACGTGTCTGCTCTGTGCGGCCAGCTCACATAAAGCTTTATGGAAGAAATAAACCTGAGGCACCGTATCGAACATGGATGGCTTTCTTCCCGAAAGCTCCACGCGGCACTTTTAAAGTGTTCGACGAATCTGGAATTGCGAGCGAGGTCTTTTAAAAAGCAGCAACCTCTCGAATTTTGTAAAAGATGCAATGGGCACCACTCTATTAAAAATTGCTCAAGGGCTCCTTCGTGCGGAAATTGTGGCTCGACCAATCATACCGAGGATTTATGTATGGCCGCAACTAAGTGTAGAAATTGTGG
- % decrease =/− SE TP1: 3 ± 7%
- % decrease =/− SE TP2: 4 ± 7%

B8: GS1892: dsRNA trigger SEQ ID NO 148; gene target COP9 signalosome complex subunit 5 (nucleic acid)
chain: CGAGCTCTTATAGTGTGAGATCTGCAGCGAGTAGTATCTACTACTATGGGCACCGAAATCTTCGATCTTAGATAGTGGTATCGTTTGATAACCATCGTTAGTTGACGATTCTGCCGCCTTGTAGTTTTCTGGATAGGTCCGGAATGCACCTATTTCAACCTTACCAGCTGAGATGGTGCGATCTGGGTCAATGACAACCGCAAGAAAAGGATCCGAGAATGATTGCTGTATATGCTGTGTGCTAACATCTATGCCACTGAGCCAGCAGCCATAGCCTGGATGACTGTGGTACCACCCCACTGCATTCTCTAACTTTCCTTGCTCTCGACATGCCTGGAGATAACGAACCATATATTCATTTGCCTCATCTTGGGCATTAACACGTGTCTCCGTGCCTTC
- % decrease =/− SE TP1: 8 ± 5%
- % decrease =/− SE TP2: 3 ± 6%

B9: GS1893: dsRNA trigger SEQ ID NO 124; gene target C2H2 zinc finger domain (nucleic acid)
chain: CACAACCTTGGGTCTGTCCTTAATTTTTCCACCAAATAATCAATCCTACGACCATTGCGTGGGACAATAATTCAATAAGGAAAATTTAAATAAAAAAAAATTTAAAAAAAAAGAAAAAGAAAAAATTTAATTAAAATCCATAATAAATACTCTGTTAATATTTACAAGGGAATCTTAATTATTCAACCAACCAATTATCTCGGAAAAGGATAAAGGAGTTGGTTTACATCTAACGATTAGAAAGCCTTTGAACCTAGTATGCCCAATTCTCTTCATATGGATACCCAGTTTCACTCAAACAATATGAATAGCAGTACAGCGAATTATAGTTCATTGCCTAGCATTTCGCCTCATCAACTGCAGCAGCAAAATCAAATGCCGACTCATATTCT
- % decrease =/− SE TP1: 5 ± 5%

B10: GS1894: dsRNA trigger SEQ ID NO 123; gene target eka-like_protein (nucleic acid)
chain: AAAGGTAGTGGCTCTGGGTCTGGAAAAGGGAAAAATGTAGAAAAGAATGTTGCTGTTGCAACCCCTAAATTACCAAAACCTCCCCAAACCTCACTGAACACATGGGTTACTGTGGCTCGAAATGGTCAGAAGAAGGCCCGAGTTCTTCAAAATAATAATATACACACCACCCCGATGAGTAAAATAAGACCACGAGTATCAATTGTGGAGAGAGCCTCAGCTGCTCCGACAGATAATAGGCTGTTTCTCCGTCTCCCCCAAGAACATGAATGGCGAAAGCTTTCTCCTGCTGAAATACGTAAGGTAATTTTAAAGAAACTTTCAATCTCACCCGTATTGGTTGGGAATACGTGAGGTAATTGTACATTGGTTGGGAAAATTAA
- % decrease =/− SE TP1: 4 ± 6%
- % decrease =/− SE TP2: 0 ± 6%

B11: GS1895: dsRNA trigger SEQ ID NO 125; gene target eka-like_protein (nucleic acid)
chain: ACGCGCGGCTAATGATATGCACAATGCACGGTGATTAGTAGCATAGATAGTACATTAGCGACTTTTACAAAAGAAGTAGAGATAGAAGAGGCTGTAGCTTTCAAAGCGTACCTCAAACTTGCAATAGCAAACTTTGCAGCAGTAGATTCGTCCCCTCCTCCACCTCGTGTCCCATTACATACAAGACCGAATAAAGGTAACGGAAATGATAGCAGTAAAGGGAAAAGTAAAGAGAAAAACTTGTCAAAGATAGCAGTCGCAATACCTCGTATTGCTTGTAATCGAATTATCATGGGCCACAGTAATCAAAATCCAAATCTGGGTACGATCAAAGAAATAGAATTACCAAAAATTATTAAAAATATGATATA
- % decrease =/− SE TP2: 4 ± 7%
